Patent publication US20200165330A1 (ORDER MADE MEDICAL RESEARCH, published 2020)
Blank lines part the entries; values can stand above or below the binder they belong to.

Key:
[1] = molecular target: T1, human VEGF121 (human, UniProt P15692 207-321); assay: ELISA, human VEGF121 coated at 20 ng/well, antibody serially diluted from 1 ug/ml, peroxidase anti-human Ig, absorbance 450 nm
T1 sequence: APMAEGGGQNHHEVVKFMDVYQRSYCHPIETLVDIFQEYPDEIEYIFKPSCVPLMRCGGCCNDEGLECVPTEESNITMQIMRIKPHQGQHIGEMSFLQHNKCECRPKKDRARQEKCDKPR
Procedure: (§1) Next, after 3 times of washing with 300 μL of 0.02% Tween 20-containing PBS (−) (hereafter, denoted as “PBS-T”), 300 μL of 3% skim milk-containing PBS (−) was dispensed to each well, followed by blocking at 37° C. for 1 hour. […] After washing similarly, TMB Single Solution was added for color development at room temperature. After the reaction was stopped with 1 N sulfuric acid, absorbance at 450 nm was measured using a plate reader (Molecular Devices).

[2] = molecular target: T2, Human recombinant VEGF165 (human, UniProt P15692 181-395); assay: ELISA, human VEGF165 coated at 20 ng/well, antibody serially diluted from 1 ug/ml, peroxidase anti-human Ig, absorbance 450 nm
T2 construct: also called rhVEGF165; rhVEGF
Procedure: as §1

[3] = molecular target: T2, Human recombinant VEGF165; assay: ELISA, human VEGF165 coated at 20 ng/well, antibody serially diluted from 1 ug/ml, peroxidase anti-canine Ig, absorbance 450 nm
Procedure: (§2) Next, after 3 times of washing with 300 μL of 0.02% Tween 20-containing PBS (−) (hereafter, denoted as “PBS-T”), 300 μL of 3% skim milk-containing PBS (−) was dispensed into each well, followed by blocking at 37° C. for 1 hour. […] After washing similarly, TMB Single Solution was added for color development at room temperature. After the reaction was stopped with 1 N sulfuric acid, absorbance at 450 nm was measured using a plate reader (Molecular Devices).

[4] = molecular target: T3, canine VEGFA (VEGF164) (canine, UniProt Q9MYV3-3 27-190); assay: ELISA, canine VEGFA coated at 20 ng/well, antibody serially diluted from 1 ug/ml, peroxidase anti-canine Ig, absorbance 450 nm
T3 construct: also called canine VEGF164
T3 sequence (looked up): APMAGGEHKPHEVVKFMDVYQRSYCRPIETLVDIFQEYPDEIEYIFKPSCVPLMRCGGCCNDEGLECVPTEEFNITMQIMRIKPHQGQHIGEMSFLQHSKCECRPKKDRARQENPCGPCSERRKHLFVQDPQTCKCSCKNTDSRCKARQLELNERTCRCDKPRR
Procedure: as §2

[5] = molecular target: T2, Human recombinant VEGF165; assay: SPR, BIAcore-3000, rhVEGF immobilized on the chip, antibody injected
[6] = molecular target: T2, Human recombinant VEGF165; assay: measured KD for rhVEGF set against a cited KD of Avastin; the excerpt does not show the method

- EC50 (read off the curve) [1]: ~0.04 µg/mL
- EC50 (read off the curve) [2]: ~0.04 µg/mL
B1: human IgG1 chimeric KLHb1501 antibody (antibody, V domains shown)
VH: DVQLQESGPGLVKPSQSLSLTCTVTGYSITSDYAWTWIRQFPGDKLEWMGYISYSGSTRYNPSLKSRISITRDTSKNQFFLHLNSVTTEDTATYFCARGGDYYGSRPWFAYWGQGTLVTVSA
VL: QAVVTQESALTTSPGETVTLTCRSSTGAVTISNYANWVQEKPDHLFTGLIGGTNNRAPDVPARFSGSLIGDKAALTITGAQTEDEAIYFCALWYSNHLVFGEGTKLTVL
notes: also called KLHb1501HC; KLHb1501HC antibody

- EC50 (read off the curve) [3]: ~0.03 µg/mL
- EC50 (read off the curve) [4]: ~0.03 µg/mL
B2: canine-IgGB chimeric KLHb1501 antibody (antibody, V domains shown)
VH: B1 VH
VL: QAVVTQESALTTSPGETVTLTCRSSTGAVTISNYANWVQEKPDHLFTGLIGGTNNRAPDVPARFSGSLIGDKAALTITGAQTEDEAIYFCALWYSNHLVFGEGTKLTVLQ
notes: also called KLHb1501CC; KLHb1501CC antibody

- Kd [5]: 0.6 pM
- ratio of dissociation constant to that of Avastin (bevacizumab) [6]: ≤ 0.001 ratio (KD of the antibody / KD of Avastin, cited as 4.9 nmol/L)
B3: KLHb1501 (antibody, V domains shown)
VH: B1 VH
VL: B1 VL
notes: also called KLHb1501 antibody; KLH1501
